A word on the Kd: it is a measure of binding affinity in units of concentration. A low value points to higher affinity. Usually koff stands for the rate constant with which the complex falls apart. Higher therefore signals fast dissociation. A word on the kon: it is the second-order rate constant of association. High values mean faster complex formation, low ones slower complex formation.

Results on one molecule are retold here after paper PMC6078952.

For the assay, the target named is Anastellin. The assay can be described thus: BLI; Octet RED96, anastellin (100 µg/ml) covalently coupled to AR2G biosensors via amine groups, sensors dipped into LOX-PP solutions for 3 min in HBS-P20; 1:1 model.

B1: recombinant human propeptide of lysyl oxidase (LOX-PP) (domain or fragment)
chain: APLAAGQQQPPREPPAAPGAWRQQIQWENNGQVFSLLSLGSQYQPQRRRDPGAAVPGAANASAQQPRTPILLIRDNRTAAARTRTAGSSGVTAGRPRPTARHWFQAGYSTSRAREAGASRAENQTAPGEVPALSNLRPPSRVDGMVG
modifications: N-linked oligosaccharides (removed by PNGase F, about 13 kDa; three glycosylated asparagine residues: N81, N97, N144)
In turn, B1 returned a Kd of 152 nM, a koff of 0.000445 s⁻¹ and a kon of 2930 M⁻¹ s⁻¹.
